Source: US20240002464A1 (published 2024)
Positions count from the first letter of the chain named.

T1: HPV16 E6 peptide on HLA-A*02:01 (human)
T1 peptide: TIHDIILECV

B1: TCR1 (TCR, V domains shown)
Valpha: AQKVTQAQTEISVVEKEDVTLDCVYETRDTTYYLFWYKQPPSGELVFLIRRNSFDEQNEISGRYSWNFQKSTSSFNFTITASQVVDSAVYFCALRAGANNLFFGTGTRLTVIP
Vbeta: NAGVTQTPKFQVLKTGQSMTLQCAQDMNHNSMYWYRQDPGMGLRLIYYSASEGTTDKGEVPNGYNVSRLNKREFSLRLESAAPSQTSVYFCASGPWGSSGNTIYFGEGSWLTVV
B2: TCR2 (TCR, V domains shown)
Valpha: B1 Valpha with N100L, L101P, F102V
Vbeta: B1 Vbeta
B3: TCR4 (TCR, V domains shown)
Valpha: B1 Valpha with N99W, N100P, L101M, F102K
Vbeta: B1 Vbeta
B4: TCR3 (TCR, V domains shown)
Valpha: B1 Valpha with N100T, L101P, F102I
Vbeta: B1 Vbeta

Molecular target: T1, HPV16 E6 peptide on HLA-A*02:01
Assay: Kd or kinetics
Method: In this example, the binding activity of the soluble TCR molecule obtained according to Example 2 to the […]-HLA A0201 complex was tested using a BIAcore T200 real-time analysis system. The […]-HLA A0201 complex was prepared by methods well known to those skilled in the art, mainly including purification, renaturation, repurification, and biotinylation. The anti-streptavidin antibody (GenScript) was added to the coupling buffer (10 mM sodium acetate buffer, pH 4.77), and then the antibody was passed through a CMS chip previously activated with EDC and NHS so that the antibody was immobilized on the chip surface, and finally the unreacted activated surface was blocked with a solution of ethanolamine in hydrochloric acid to complete the coupling. The coupling was at a level of about 15,000 RU. A low concentration of streptavidin was allowed to flow through the surface of the chip coated with the antibody, then the […]-HLA A0201 complex was allowed to flow through a detection channel, with the other channel serving as a reference channel. Then 0.05 mM of biotin was allowed to flow through the chip at a flow rate of 10 μL/min for 2 minutes, blocking the remaining binding site for streptavidin.
The kinetic parameters were calculated using the BIAcore Evaluation software to obtain the binding kinetic profiles of the soluble TCR molecules of the present disclosure binding to the […]-HLA A0201 complex, respectively, as shown in FIGS. 7a-7d. […] Also, the binding activity of the soluble TCR molecule of the present disclosure to several complexes of other unrelated antigen short peptides and HLA was also tested by the method.

Row | Binder | binding result
1 | B1 | recognises
2 | B2 | recognises
3 | B3 | recognises
4 | B4 | recognises
